Measurements from publication PMC11430399, “Cold-induced degradation of core clock proteins implements temperature compensation in the Arabidopsis circadian clock” (Science Advances, 2024).

Target: T1, LOV KELCH PROTEIN 2 fused with GFP (LKP2-GFP) (Arabidopsis thaliana, UniProt Q8W420 1-611)
T1 construct: LKP2, Arabidopsis thaliana, AT2G18915; Own promoter-driven genomic LKP2; source: Arabidopsis 35Sp:PRR5-F/lkp2-cr3/LKP2-GFP transgenic seedlings, in protein extract
Test: co-IP; LKP2-GFP immunoprecipitated with anti-GFP antibodies from 35Sp:PRR5-F/lkp2-cr3/LKP2-GFP seedlings kept at 12° or 28°C for 24 hours with MG132; PRR5-FLAG detected by Western blot; three biological replicates
Conditions: partners not purified

T1 sequence (Q8W420 whole entry, the tested form may be a part): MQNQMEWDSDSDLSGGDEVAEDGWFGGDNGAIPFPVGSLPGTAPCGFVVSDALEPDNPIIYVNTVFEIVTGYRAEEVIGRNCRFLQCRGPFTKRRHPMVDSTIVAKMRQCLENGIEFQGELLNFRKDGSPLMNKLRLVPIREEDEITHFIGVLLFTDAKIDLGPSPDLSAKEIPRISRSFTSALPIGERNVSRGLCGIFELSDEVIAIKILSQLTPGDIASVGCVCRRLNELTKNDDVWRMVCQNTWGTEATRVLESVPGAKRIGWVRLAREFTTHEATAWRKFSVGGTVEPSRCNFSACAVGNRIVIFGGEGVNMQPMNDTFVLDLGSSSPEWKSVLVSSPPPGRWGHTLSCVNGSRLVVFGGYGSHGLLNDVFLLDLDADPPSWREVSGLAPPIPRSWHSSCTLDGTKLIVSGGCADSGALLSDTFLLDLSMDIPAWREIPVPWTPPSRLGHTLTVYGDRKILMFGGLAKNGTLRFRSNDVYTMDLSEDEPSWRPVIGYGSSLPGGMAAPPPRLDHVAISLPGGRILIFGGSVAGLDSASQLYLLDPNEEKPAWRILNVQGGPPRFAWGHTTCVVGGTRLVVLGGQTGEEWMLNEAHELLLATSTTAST

fold of co-immunoprecipitated PRR5-FLAG at 12°C against 28°C: 15.9 fold
B1: PSEUDO-RESPONSE REGULATOR 5 with a C-terminal triple FLAG tag (PRR5-FLAG) (natural protein, Arabidopsis thaliana, UniProt Q6LA42 1-558, looked up)
chain: MTSSEEVVEVTVVKAPEAGGGKLSRRKIRKKDAGVDGLVKWERFLPKIALRVLLVEADDSTRQIIAALLRKCSYRVAAVPDGLKAWEMLKGKPESVDLILTEVDLPSISGYALLTLIMEHDICKNIPVIMMSTQDSVNTVYKCMLKGAADYLVKPLRRNELRNLWQHVWRRQTSLAPDSFPWNESVGQQKAEGASANNSNGKRDDHVVSGNGGDAQSSCTRPEMEGESADVEVSARDAVQMECAKSQFNETRLLANELQSKQAEAIDFMGASFRRTGRRNREESVAQYESRIELDLSLRRPNASENQSSGDRPSLHPSSASAFTRYVHRPLQTQCSASPVVTDQRKNVAASQDDNIVLMNQYNTSEPPPNAPRRNDTSFYTGADSPGPPFSNQLNSWPGQSSYPTPTPINNIQFRDPNTAYTSAMAPASLSPSPSSVSPHEYSSMFHPFNSKPEGLQDRDCSMDVDERRYVSSATEHSAIGNHIDQLIEKKNEDGYSLSVGKIQQSLQREAALTKFRMKRKDRCYEKKVRYESRKKLAEQRPRIKGQFVRQVQSTQAP
notes: PRR5, Arabidopsis thaliana; source: Arabidopsis 35Sp:PRR5-F transgenic seedlings (also 35Sp:PRR5-F/lkp2-cr3/LKP2-GFP), in protein extract; not shown: 3xFLAG, C-terminal, kept
